The values that follow come from article PMC2171419 (The Journal of Cell Biology, 2005).

Residue numbers refer to the chain shown, from its start.

In experiment [1] the target is T1, GST–14-3-3ζ Ser184A (UniProt P63104 1-245, Ser184A).
T1 sequence (looked up): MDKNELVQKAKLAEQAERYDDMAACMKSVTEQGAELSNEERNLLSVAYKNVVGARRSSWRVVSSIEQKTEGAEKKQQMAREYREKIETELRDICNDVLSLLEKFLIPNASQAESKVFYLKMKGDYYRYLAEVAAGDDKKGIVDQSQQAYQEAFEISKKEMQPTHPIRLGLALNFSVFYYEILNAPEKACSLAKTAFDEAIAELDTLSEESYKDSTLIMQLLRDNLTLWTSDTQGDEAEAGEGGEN
Briefly: pull-down.

Experiment [2] concerns the target T2, GST–14-3-3ζ (WT) (UniProt P63104 1-245).
T2 sequence (looked up): T1 sequence (looked up) with A184S
Put plainly: pull-down.

B1: His-tagged Bad wild type, phosphorylated by CA-Akt (natural protein, mouse, UniProt Q61337 1-204, looked up)
chain: MGTPKQPSLAPAHALGLRKSDPGIRSLGSDAGGRRWRPAAQSMFQIPEFEPSEQEDASATDRGLGPSLTEDQPGPYLAPGLLGSNIHQQGRAATNSHHGGAGAMETRSRHSSYPAGTEEDEGMEEELSPFRGRSRSAPPNLWAAQRYGRELRRMSDEFEGSFKGLPRPKSAGTATQMRQSAGWTRIIQSWWDRNLGKGGSTPSQ
modifications: phosphoserine at 136 (by CA-Akt in vitro)
Consider B1, for which the binding result in experiment [1] is on record as “binds”.

B2: His-tagged Bad Ser128A-Thr201A, phosphorylated by active Akt (natural protein, mouse, UniProt Q61337 1-204, looked up)
chain: B1 chain with S128A, T201A
modifications: phosphoserine at 136 (by CA-Akt in vitro)
Turning to B2, in experiment [2], the binding result is “binds”.

B3: His-tagged Bad Ser128A, phosphorylated by active Akt (natural protein, mouse, UniProt Q61337 1-204, looked up)
chain: B1 chain with S128A
modifications: phosphoserine at 136 (by CA-Akt in vitro)
For the molecule B3, in experiment [2], the binding result is “binds”.

B4: His-tagged Bad Thr201A, phosphorylated by active Akt (natural protein, mouse, UniProt Q61337 1-204, looked up)
chain: B1 chain with T201A
modifications: phosphoserine at 136 (by CA-Akt in vitro)
For B4, the binding result in experiment [2] is given as “binds”.
